Tests used:
SHP2-C SH2 = assay: SH2 binding enrichment of the phosphorylated peptide, bacterial display (enrichment ratio); higher = better substrate or ligand; peptides without Tyr show the background
Grb2 SH2 = Grb2 SH2 (UniProt P62993); assay: as above
c-Src SH2 = assay: as above
FGFR3 = FGFR3 (UniProt P22607); assay: phosphorylation enrichment, bacterial display (enrichment ratio); higher = better substrate or ligand; peptides without Tyr show the background
Fer (mouse) = assay: as above
MERTK = MERTK (UniProt Q12866); assay: as above
Chain of MERTK (Q12866 whole entry, looked up): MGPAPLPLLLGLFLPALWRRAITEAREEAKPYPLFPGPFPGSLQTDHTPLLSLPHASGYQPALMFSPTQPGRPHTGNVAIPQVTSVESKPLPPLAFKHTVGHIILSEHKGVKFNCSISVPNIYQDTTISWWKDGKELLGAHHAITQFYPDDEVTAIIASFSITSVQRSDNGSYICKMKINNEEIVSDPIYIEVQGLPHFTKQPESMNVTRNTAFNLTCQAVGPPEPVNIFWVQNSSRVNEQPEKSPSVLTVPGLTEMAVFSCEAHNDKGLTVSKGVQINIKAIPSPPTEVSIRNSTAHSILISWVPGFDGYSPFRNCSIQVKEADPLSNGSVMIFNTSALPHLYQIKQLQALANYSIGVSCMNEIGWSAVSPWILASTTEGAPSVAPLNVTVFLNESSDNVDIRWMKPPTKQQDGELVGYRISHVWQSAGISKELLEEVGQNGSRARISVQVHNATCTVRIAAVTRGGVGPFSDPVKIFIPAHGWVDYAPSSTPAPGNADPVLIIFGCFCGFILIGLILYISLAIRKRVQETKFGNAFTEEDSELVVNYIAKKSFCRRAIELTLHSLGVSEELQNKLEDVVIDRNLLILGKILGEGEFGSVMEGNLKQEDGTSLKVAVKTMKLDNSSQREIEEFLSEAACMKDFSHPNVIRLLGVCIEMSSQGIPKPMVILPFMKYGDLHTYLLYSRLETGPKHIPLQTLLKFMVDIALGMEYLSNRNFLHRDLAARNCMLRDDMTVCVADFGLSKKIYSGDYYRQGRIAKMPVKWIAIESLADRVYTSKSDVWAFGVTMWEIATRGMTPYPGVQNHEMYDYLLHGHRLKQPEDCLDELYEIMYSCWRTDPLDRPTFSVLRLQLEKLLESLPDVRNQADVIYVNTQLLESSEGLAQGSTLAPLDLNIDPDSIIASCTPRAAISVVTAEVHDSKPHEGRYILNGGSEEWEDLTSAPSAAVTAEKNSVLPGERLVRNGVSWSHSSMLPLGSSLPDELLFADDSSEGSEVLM

c-Abl (mouse) = assay: as above
Hck = Hck (UniProt P08631); assay: as above
Chain of Hck (P08631 whole entry, looked up): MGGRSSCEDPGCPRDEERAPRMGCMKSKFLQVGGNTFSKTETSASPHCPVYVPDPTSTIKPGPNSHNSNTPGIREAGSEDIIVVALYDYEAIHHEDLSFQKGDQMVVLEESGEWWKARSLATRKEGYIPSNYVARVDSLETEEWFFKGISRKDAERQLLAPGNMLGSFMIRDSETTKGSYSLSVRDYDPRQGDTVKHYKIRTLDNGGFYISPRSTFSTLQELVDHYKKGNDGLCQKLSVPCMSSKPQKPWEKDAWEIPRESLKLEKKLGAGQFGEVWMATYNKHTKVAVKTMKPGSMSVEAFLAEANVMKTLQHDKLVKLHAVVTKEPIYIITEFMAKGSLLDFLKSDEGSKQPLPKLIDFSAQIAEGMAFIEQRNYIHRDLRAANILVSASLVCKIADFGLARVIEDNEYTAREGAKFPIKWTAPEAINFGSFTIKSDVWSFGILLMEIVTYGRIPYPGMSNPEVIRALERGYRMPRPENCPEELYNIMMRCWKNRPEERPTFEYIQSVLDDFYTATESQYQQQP

FGFR1 = FGFR1 (UniProt P11362); assay: as above
Jak2 = Jak2 (UniProt O60674); assay: as above
Fyn = Fyn (UniProt P06241); assay: as above
Chain of Fyn (P06241 whole entry, looked up): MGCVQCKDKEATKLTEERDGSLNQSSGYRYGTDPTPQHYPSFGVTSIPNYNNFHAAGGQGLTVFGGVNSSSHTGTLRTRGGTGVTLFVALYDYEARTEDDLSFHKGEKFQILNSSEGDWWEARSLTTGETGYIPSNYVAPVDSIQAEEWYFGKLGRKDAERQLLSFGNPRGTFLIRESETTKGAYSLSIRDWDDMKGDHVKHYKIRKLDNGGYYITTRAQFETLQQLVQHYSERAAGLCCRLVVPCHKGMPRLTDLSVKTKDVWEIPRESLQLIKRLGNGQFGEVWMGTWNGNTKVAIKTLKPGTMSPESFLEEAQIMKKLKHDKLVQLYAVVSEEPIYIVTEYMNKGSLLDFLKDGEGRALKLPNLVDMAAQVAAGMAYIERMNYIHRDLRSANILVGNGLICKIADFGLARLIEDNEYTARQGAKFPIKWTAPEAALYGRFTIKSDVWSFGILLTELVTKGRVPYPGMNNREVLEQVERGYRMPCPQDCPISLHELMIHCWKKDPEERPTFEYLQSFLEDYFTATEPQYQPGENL

EPHB2 = EPHB2 (UniProt P29323); assay: as above
Chain of EPHB2 (P29323 whole entry, looked up): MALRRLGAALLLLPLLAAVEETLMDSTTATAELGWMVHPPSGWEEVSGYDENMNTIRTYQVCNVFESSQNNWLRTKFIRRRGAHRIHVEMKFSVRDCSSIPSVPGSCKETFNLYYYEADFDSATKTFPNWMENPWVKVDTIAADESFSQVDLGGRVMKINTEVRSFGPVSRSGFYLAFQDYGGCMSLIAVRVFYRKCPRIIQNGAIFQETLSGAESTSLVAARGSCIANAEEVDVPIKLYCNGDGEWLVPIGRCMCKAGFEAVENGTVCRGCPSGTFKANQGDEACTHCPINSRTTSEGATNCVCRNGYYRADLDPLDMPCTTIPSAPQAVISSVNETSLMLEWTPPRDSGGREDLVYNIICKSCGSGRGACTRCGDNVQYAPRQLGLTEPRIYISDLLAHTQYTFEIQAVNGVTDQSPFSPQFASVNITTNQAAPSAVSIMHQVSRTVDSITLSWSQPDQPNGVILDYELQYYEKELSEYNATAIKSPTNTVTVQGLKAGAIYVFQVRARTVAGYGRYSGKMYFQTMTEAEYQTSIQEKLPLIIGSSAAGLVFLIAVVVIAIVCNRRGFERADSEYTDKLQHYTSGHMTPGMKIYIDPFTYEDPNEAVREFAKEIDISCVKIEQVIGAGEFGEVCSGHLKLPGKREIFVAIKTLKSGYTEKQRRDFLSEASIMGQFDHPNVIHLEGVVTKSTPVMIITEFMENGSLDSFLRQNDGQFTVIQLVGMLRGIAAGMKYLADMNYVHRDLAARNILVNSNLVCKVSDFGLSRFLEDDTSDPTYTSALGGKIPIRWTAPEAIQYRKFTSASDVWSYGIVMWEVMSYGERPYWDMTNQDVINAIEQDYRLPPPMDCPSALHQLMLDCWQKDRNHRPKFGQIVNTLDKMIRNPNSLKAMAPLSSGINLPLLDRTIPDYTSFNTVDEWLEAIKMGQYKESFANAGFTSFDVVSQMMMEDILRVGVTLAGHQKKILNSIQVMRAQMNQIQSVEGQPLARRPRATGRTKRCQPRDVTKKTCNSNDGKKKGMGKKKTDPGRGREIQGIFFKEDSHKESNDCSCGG

Fes = Fes (UniProt P07332); assay: as above
c-Src = assay: as above
EPHB1 = EPHB1 (UniProt P54762); assay: as above
Chain of EPHB1 (P54762 whole entry, looked up): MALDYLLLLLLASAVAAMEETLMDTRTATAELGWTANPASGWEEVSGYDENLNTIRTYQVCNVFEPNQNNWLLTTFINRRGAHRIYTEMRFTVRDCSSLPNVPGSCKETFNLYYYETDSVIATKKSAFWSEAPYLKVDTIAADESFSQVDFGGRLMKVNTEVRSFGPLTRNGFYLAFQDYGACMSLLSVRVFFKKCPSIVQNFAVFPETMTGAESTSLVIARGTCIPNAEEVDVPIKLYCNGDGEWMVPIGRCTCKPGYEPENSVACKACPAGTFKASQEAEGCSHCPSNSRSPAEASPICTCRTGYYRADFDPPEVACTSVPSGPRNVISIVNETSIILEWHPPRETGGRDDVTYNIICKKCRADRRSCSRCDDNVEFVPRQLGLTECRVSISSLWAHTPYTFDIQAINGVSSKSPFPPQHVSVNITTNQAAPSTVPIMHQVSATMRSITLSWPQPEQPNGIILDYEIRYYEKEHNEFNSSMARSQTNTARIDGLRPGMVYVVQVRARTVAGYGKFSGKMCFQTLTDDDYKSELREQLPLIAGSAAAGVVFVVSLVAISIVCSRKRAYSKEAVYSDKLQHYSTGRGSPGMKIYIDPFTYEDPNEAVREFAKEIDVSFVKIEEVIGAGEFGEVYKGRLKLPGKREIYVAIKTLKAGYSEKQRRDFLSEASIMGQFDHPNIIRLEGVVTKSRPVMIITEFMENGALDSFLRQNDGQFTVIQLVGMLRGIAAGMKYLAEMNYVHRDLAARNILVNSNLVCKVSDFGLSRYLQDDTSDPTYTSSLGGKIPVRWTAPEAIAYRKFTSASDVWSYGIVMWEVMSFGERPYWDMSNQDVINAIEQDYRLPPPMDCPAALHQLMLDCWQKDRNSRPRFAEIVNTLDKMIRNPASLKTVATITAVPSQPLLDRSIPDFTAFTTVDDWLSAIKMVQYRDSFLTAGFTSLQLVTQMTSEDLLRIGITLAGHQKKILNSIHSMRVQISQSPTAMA

AncSZ = assay: as above
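Wherever SH2 binding enrichment of the phosphorylated peptide, bacterial display is given: peptide library displayed on the E. coli surface as eCPX fusions, selected cells deep-sequenced, score is each peptide's frequency after selection divided by its frequency in the input.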
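Wherever phosphorylation enrichment, bacterial display is given: 11-residue human phosphosite peptides and single-mutation variants displayed on the E. coli surface, counted by deep sequencing, each peptide's frequency after selection divided by its frequency in the unselected input library; frequency after pTyr selection over input frequency; kinase dosed for 20-30% of maximal phosphorylation in three min.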

Chain of FGFR3 (P22607 whole entry, looked up): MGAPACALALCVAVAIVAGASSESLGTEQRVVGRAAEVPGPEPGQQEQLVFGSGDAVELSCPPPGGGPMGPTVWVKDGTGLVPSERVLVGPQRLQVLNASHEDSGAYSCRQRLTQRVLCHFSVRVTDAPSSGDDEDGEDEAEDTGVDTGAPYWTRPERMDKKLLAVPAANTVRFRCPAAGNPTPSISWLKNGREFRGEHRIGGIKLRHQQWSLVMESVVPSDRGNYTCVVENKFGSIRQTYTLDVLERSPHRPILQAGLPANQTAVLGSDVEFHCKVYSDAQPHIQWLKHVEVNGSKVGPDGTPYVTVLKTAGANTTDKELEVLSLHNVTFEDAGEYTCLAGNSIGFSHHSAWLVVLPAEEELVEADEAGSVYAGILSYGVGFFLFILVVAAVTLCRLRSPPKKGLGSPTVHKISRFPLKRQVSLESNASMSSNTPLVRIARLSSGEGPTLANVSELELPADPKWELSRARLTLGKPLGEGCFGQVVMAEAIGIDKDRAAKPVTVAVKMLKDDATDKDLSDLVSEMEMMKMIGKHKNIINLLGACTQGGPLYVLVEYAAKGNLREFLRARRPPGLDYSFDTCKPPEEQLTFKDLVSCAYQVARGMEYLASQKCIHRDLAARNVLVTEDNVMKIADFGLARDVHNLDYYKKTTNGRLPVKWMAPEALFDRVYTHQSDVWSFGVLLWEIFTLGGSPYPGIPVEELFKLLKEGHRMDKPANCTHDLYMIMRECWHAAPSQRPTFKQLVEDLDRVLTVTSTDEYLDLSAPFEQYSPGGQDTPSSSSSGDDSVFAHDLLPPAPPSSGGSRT

Sequence	SH2 binding enrichment (SHP2-C SH2)	SH2 binding enrichment (Grb2 SH2)	SH2 binding enrichment (c-Src SH2)	phosphorylation enrichment (FGFR3)	phosphorylation enrichment (Fer (mouse))	phosphorylation enrichment (MERTK)	phosphorylation enrichment (c-Abl (mouse))	phosphorylation enrichment (Hck)	phosphorylation enrichment (FGFR1)	phosphorylation enrichment (Jak2)	phosphorylation enrichment (Fyn)	phosphorylation enrichment (EPHB2)	phosphorylation enrichment (Fes)	phosphorylation enrichment (c-Src)	phosphorylation enrichment (EPHB1)	phosphorylation enrichment (AncSZ)
FSIDHYLGKEM [G6PD_Y202_R198S_YF]	0.953	0.831	0.643	0.749	0.511	0.421	0.845	0.537	0.579	1.16	0.545	0.61	1.2	0.464	0.669	1.06
VFPIDYFFPPQ [AR_Y552_L548F_YF]	1.32	1.4	0.646	10.7	0.643	0.518	1.03	0.618	12.6	2.76	0.508	1.53	1.04	0.906	1.19	4.04
FAFQLYDLDPD [CHP2_Y123_R127P_YF]	0.999	1.02	0.982	0.907	0.62	0.571	1.05	1.8	0.568	1.25	2.84	0.698	1.26	3.52	0.981	1.26
FLGRDYLETLM [DUS3L_Y610_YF]	0.96	0.878	0.563	0.686	0.591	0.471	0.685	0.401	0.48	0.748	0.422	0.459	0.957	0.428	0.47	0.849
ASMAKYYASGI [ACADSB_Y372_E376G]	0.595	0.739	0.466	0.568	0.473	0.518	0.851	0.434	0.36	0.604	0.451	0.556	0.653	0.444	0.327	0.71

Now from value to sequence, other results behind:

SH2 binding enrichment (SHP2-C SH2)	SH2 binding enrichment (Grb2 SH2)	SH2 binding enrichment (c-Src SH2)	Sequence	phosphorylation enrichment (FGFR3)	phosphorylation enrichment (Fer (mouse))	phosphorylation enrichment (MERTK)	phosphorylation enrichment (c-Abl (mouse))	phosphorylation enrichment (Hck)	phosphorylation enrichment (FGFR1)	phosphorylation enrichment (Jak2)	phosphorylation enrichment (Fyn)	phosphorylation enrichment (EPHB2)	phosphorylation enrichment (Fes)	phosphorylation enrichment (c-Src)	phosphorylation enrichment (EPHB1)	phosphorylation enrichment (AncSZ)
0.567	0.876	0.848	RLGDLYEEEMR [VIM_Y150]	0.487	0.377	0.335	0.585	0.379	0.48	0.938	0.487	0.691	1.14	0.425	0.615	0.72
1.08	1.03	0.561	DTNIAYWLHPR [POMT1_Y581]	1.23	0.373	0.803	0.473	0.633	1.84	0.813	0.64	0.44	0.763	0.717	0.433	0.762
0.758	1.1	1.25	KPVEEYANCHL [TF_Y593]	0.65	0.481	0.544	0.755	0.613	0.61	0.915	0.472	0.549	1.11	0.547	0.623	0.96
0.925	0.836	1.03	RVVVPYEPPEV [TP53_Y220_S215R]	0.657	0.409	0.468	0.613	0.454	0.631	0.892	0.554	0.505	0.99	0.36	0.523	1.01

Source: the supplement of paper PMC10065799, “High-throughput profiling of sequence recognition by tyrosine kinases and SH2 domains using bacterial peptide display” (eLife, 2023)
